From the supplement of paper PMC12667976
± gives the standard error.

B1: library; numbered along this chain (parent)
chain: MATDAALRRLLRLHRTEIAVAVDSAFPLLHALADHDVVPEDKFQETLHLKEKEGCPQAFHALLSWLLTQDSTAILDFWRVLFKDYNLERYGRLQPILDSFPKDVDLSQPRKGRKPPAVPKALVPPPRLPTKRKASEEARAAAPAALTPRGTASPGSQLKAKPPKKPESSAEQQRLPLGNGIQTMSASVQRAVAMSSGDVPGARGAVEGILIQQVFESGGSKKCIQVGGEFYTPSKFEDSGSGKNKARSSSGPKPLVRAKGAQGAAPGGGEARLGQQGSVPAPLALPSDPQLHQKNEDECAVCRDGGELICCDGCPRAFHLACLSPPLREIPSGTWRCSSCLQATVQEVQPRAEEPRPQEPPVETPLPPGLRSAGEEVRGPPGEPLAGMDTTLVYKHLPAPPSAAPLPGLDSSALHPLLCVGPEGQQNLAPGARCGVCGDGTDVLRCTHCAAAFHWRCHFPAGTSRPGTGLRCRSCSGDVTPAPVEGVLAPSPARLAPGPAKDDTASHEPALHRDDLESLLSEHTFDGILQWAIQSMARPAAPFPS

Variants of: B1
Experiment: AIRE transcriptional activation functional score (insulin promoter-GFP; nonsense median 0, synonymous median 1) (normalised score); higher = higher AIRE activity (more reporter activation)
Conditions: with insulin promoter-GFP reporter in HEK293
Experimental: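 Deep mutational scan of full-length human AIRE (codon-optimized cDNA, DT-POPCode NNN libraries over three regions) integrated at a Bxb1 landing pad in HEK293 cells carrying an insulin core promoter-GFP reporter at a Flp-In site. Cells were sorted for the top 10% GFP about 14 days after transfection. Variant frequency log-ratios (select vs non-select, TileSeq) were rescaled so that the nonsense median is 0 and the synonymous median is 1, then averaged over biological replicates.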

Row | Variant | AIRE transcriptional activation functional score
1 | L406E | 1.12 ± 0.1
2 | G251F | 1.2 ± 0.13
3 | G201H | 1.02 ± 0.23
4 | G201Y | 1.17 ± 0.025
5 | P124E | 0.934 ± 0.7
6 | P398F | 1.43 ± 0.31
7 | D389K | 0.278 ± 0.3
8 | V479L | 0.811 ± 0.29
9 | Q69D | 0.261 ± 0.43
10 | Q69M | -0.732 ± 0.14
11 | Q69C | 0.105 ± 0.28
12 | C419W | 1.21 ± 0.085
13 | L81G | -0.169 ± 0.42
14 | L81S | 0.123 ± 0.79
15 | N244E | 0.249 ± 0.19
16 | T344V | 0.896 ± 0.23
17 | P27Q | 0.267 ± 0.15
18 | Q290M | 1.27 ± 0.14
19 | L13S | -0.217 ± 0.59
20 | T3L | 1.26 ± 0.31
21 | L323S | 0.985 ± 0.23
22 | H292V | 0.936 ± 0.42
23 | F43R | 0.134 ± 0.58
24 | G274V | 1.05 ± 0.16

Row | Variant | AIRE transcriptional activation functional score
25 | R538T | 0.72 ± 0.23
26 | H523D | 0.678 ± 0.41
27 | P368D | 0.975 ± 0.089
28 | S506G | 0.799 ± 0.26
29 | K395A | 0.786 ± 0.12
30 | P286I | 0.986 ± 0.4
31 | V301P | 0.662 ± 0.28
32 | K294E | 0.357 ± 0.087
33 | K294S | 0.706 ± 0.33
34 | G462Y | 1.24 ± 0.089
35 | S402Q | 0.546 ± 0.66
36 | C223S | 0.477 ± 0.24
37 | P162V | 0.356 ± 0.46
38 | L10Q | -0.766 ± 0.54
39 | Q342G | 0.963 ± 0.34
40 | C437E | 0.473 ± 0.29
41 | R303Q | 1.23 ± 0.3
42 | G240S | 1.1 ± 0.27
43 | G240N | 1.96 ± 0.076
44 | G240A | 0.723 ± 0.28
45 | K164Q | 0.909 ± 0.12
46 | R471T | 0.747 ± 0.38
47 | L495I | 1.22 ± 0.088
48 | Q293Y | 0.958 ± 0.49

Row | Variant | AIRE transcriptional activation functional score
49 | P166K | -0.231 ± 0.21
50 | R15L | 0.37 ± 0.32
51 | P400H | 0.71 ± 0.14
52 | P400Y | 1.69 ± 0.045
53 | P315L | 0.924 ± 0.38
54 | A496R | 0.864 ± 0.25
55 | L414W | 0.979 ± 0.16
56 | C434I | 0.0869 ± 0.1
57 | E53V | 1.36 ± 0.5
58 | G424W | 1.26 ± 0.04
59 | S185N | 0.832 ± 0.055
60 | S185Q | 0.746 ± 0.13
61 | F77T | 0.0954 ± 0.74
62 | V377L | 1.19 ± 0.34
63 | K42Y | -0.464 ± 0.26
64 | L32P | -0.841 ± 0.94
65 | L32F | -0.313 ± 0.24
66 | G112F | 1.03 ± 0.43
67 | D312V | 0.485 ± 0.17
68 | H14I | -0.18 ± 0.47
69 | Q346V | 0.378 ± 0.25
70 | F230S | 0.473 ± 0.15
71 | A5V | 1.45 ± 0.2
72 | V192W | 0.522 ± 0.023

Row | Variant | AIRE transcriptional activation functional score
73 | V192S | 0.697 ± 0.32
74 | G438C | 1.25 ± 0.083
75 | S135G | -0.37 ± 0.43
76 | S135W | 1.79 ± 0.1
77 | I533S | 0.404 ± 0.12
78 | I209R | 0.917 ± 0.066
79 | I209V | 0.66 ± 0.12
80 | W78I | 0.15 ± 0.38
81 | E216Q | 0.964 ± 0.12
82 | S278H | 1.22 ± 0.16
83 | P200R | 0.99 ± 0.34
84 | H319D | 1.24 ± 0.2
85 | H319L | 0.424 ± 0.099
86 | R473C | 0.937 ± 0.055
87 | C446A | 0.113 ± 0.089
88 | E88K | 0.437 ± 0.19
89 | R456E | 1.24 ± 0.15
90 | E40G | -0.121 ± 0.23
91 | E207F | 0.67 ± 0.11
92 | S99Q | -0.179 ± 0.092
93 | E137P | 1.18 ± 0.076
94 | K120C | 1.2 ± 0.21
95 | L128H | 0.857 ± 0.26
96 | L128A | 1.19 ± 0.6

Row | Variant | AIRE transcriptional activation functional score
97 | S324H | 0.589 ± 0.076
98 | R445K | 1.17 ± 0.26
99 | E347M | 1.06 ± 0.099
100 | R12C | -0.448 ± 0.53
101 | G306M | 0.451 ± 0.042
102 | I330Y | 0.572 ± 0.036
103 | L519W | 0.904 ± 0.15
104 | L285D | 1.56 ± 0.21
105 | S153M | 1.09 ± 0.36
106 | A386E | 1.21 ± 0.083
107 | Q157Y | 1.31 ± 0.54
108 | Q426E | 1.07 ± 0.094
109 | D442V | -0.000931 ± 0.14
110 | D442Y | 0.265 ± 0.11
111 | S535H | 0.704 ± 0.11
112 | V20M | 0.622 ± 0.34
113 | R316K | 1.03 ± 0.047
114 | P39Q | 0.348 ± 0.4
115 | S24K | 1.61 ± 0.099
116 | H30A | -0.75 ± 0.63
117 | L385H | 1.13 ± 0.079
118 | G228Y | 0.381 ± 0.37
119 | Q225W | 0.582 ± 0.095
120 | Q225E | 1.13 ± 0.34

Row | Variant | AIRE transcriptional activation functional score
121 | G260V | 1.3 ± 0.18
122 | G260N | 1.12 ± 0.21
123 | P266N | 0.956 ± 0.061
124 | A193N | 1.14 ± 0.099
125 | A193H | 1.81 ± 0.18
126 | A193F | 0.268 ± 0.33
127 | P115E | 0.792 ± 0.58
128 | K235Y | 1.01 ± 0.34
129 | P405Q | 0.685 ± 0.17
130 | P405N | 1.22 ± 0.071
131 | S195M | 0.346 ± 0.035
132 | L444K | 0.847 ± 0.12
133 | L444H | 1.18 ± 0.073
134 | L444I | 1.08 ± 0.18
135 | L444S | 1.09 ± 0.34
136 | T183N | 1.18 ± 0.098
137 | E376L | 1.17 ± 0.17
138 | D478A | 0.808 ± 0.31
139 | D84H | 0.341 ± 0.18
140 | P384V | 0.849 ± 0.1
141 | W65A | -0.93 ± 1.4
142 | A510Q | 0.851 ± 1.1
143 | A264M | 1.01 ± 0.1
144 | A264Q | 0.566 ± 0.077

Row | Variant | AIRE transcriptional activation functional score
145 | V256L | 0.974 ± 0.23
146 | G227T | -0.68 ± 0.35
147 | G227R | 0.425 ± 0.44
148 | G227V | 0.378 ± 0.5
149 | V345I | 0.913 ± 0.24
150 | V345R | 1.14 ± 0.29
151 | A482I | 1.32 ± 0.4
152 | L520K | 0.452 ± 0.077
153 | Q534G | 1.08 ± 0.3
154 | L28C | -0.067 ± 0.3
155 | K161P | 0.742 ± 0.53
156 | C340S | 1.52 ± 0.17
157 | C340F | 0.877 ± 0.032
158 | C340P | 1.49 ± 0.32
159 | I74S | -0.0735 ± 0.31
160 | A142K | 0.314 ± 0.24
161 | D103V | 0.319 ± 0.28
162 | D103A | 0.291 ± 0.44
163 | V38I | 1.55 ± 0.76
164 | N86V | 1.33 ± 0.45
165 | R378P | 0.932 ± 0.23
166 | F525I | 0.367 ± 0.3
167 | F525R | -0.845 ± 0.21
